T1: MutS N279A (Pseudomonas aeruginosa, UniProt Q9HY08 1-855, N279A)
T1 sequence: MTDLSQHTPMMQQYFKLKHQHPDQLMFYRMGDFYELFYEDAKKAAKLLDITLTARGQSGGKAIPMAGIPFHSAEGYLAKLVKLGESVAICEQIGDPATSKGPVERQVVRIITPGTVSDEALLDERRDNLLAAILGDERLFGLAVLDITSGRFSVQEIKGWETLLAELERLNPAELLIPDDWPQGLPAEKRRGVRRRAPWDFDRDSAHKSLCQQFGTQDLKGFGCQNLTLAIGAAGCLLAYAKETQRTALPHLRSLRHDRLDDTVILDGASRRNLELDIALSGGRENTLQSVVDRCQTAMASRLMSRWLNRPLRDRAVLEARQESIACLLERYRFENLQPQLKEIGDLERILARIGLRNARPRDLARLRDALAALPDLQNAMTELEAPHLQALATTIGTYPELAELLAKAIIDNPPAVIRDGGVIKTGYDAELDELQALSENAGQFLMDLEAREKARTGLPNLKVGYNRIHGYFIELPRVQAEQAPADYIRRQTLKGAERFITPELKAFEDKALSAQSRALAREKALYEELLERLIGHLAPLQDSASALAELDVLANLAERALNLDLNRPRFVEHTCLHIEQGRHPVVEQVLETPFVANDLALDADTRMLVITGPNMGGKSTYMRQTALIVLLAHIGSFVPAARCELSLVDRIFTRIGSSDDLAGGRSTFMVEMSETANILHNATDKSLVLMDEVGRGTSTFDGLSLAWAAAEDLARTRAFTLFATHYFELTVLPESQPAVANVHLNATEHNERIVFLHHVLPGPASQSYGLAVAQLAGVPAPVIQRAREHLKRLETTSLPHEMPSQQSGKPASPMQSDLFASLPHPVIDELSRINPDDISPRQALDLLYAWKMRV

T2: MutS (Pseudomonas aeruginosa, UniProt Q9HY08 1-855)
T2 sequence: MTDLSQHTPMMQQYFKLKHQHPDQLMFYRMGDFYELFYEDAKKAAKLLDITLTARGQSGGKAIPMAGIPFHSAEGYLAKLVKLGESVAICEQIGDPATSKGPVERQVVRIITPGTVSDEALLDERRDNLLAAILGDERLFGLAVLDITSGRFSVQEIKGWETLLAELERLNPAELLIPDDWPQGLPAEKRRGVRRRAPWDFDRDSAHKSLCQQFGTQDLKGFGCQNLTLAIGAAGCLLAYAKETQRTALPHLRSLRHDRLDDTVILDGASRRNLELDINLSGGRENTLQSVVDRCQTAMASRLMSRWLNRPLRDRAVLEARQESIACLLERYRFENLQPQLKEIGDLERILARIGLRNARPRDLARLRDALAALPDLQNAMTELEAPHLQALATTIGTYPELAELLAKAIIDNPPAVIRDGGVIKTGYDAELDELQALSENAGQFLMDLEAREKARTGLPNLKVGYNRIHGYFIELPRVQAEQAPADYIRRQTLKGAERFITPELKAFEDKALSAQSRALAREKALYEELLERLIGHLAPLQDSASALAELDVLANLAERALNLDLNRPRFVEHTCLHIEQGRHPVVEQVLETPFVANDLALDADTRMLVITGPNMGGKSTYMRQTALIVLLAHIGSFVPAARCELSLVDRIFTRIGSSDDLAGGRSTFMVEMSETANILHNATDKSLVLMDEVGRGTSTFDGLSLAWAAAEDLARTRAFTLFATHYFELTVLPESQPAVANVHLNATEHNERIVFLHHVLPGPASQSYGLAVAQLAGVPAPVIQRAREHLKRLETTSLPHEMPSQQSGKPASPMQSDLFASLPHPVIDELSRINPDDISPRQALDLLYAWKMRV

T3: MutS R842E (Pseudomonas aeruginosa, UniProt Q9HY08 1-855, R842E)
T3 sequence: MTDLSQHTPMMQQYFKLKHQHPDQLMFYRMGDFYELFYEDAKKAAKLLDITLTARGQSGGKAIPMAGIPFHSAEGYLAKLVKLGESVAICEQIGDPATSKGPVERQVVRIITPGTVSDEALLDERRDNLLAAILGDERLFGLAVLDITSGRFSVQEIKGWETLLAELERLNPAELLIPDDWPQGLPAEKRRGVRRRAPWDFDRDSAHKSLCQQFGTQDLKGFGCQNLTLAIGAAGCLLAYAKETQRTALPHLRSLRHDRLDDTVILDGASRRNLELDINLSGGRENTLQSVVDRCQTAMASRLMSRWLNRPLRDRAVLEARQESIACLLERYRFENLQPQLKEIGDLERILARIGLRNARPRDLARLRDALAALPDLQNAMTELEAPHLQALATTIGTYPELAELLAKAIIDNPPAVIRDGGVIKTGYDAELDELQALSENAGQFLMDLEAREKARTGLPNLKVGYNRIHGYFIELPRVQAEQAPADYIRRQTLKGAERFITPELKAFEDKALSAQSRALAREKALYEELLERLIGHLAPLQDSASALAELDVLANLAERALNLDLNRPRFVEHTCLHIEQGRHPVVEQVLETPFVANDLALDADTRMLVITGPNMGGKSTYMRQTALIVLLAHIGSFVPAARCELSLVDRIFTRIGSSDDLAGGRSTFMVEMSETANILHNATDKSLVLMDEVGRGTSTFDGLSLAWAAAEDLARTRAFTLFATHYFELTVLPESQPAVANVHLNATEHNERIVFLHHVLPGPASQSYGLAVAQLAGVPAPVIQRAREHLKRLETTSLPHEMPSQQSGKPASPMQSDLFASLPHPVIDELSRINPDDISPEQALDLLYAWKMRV


Columns and labels:
MutS N279A = target: T1, MutS N279A; experiment: EMSA
MutS = target: T2, MutS; experiment: EMSA
MutS R842E = target: T3, MutS R842E; experiment: native PAGE shift

Binder | Kd (MutS N279A) [nM] | Kd (MutS) [nM] | binding result (MutS R842E)
GT-pDNA (GT 8 nt from 3'-OH) (dsDNA) DNA 1: ATGTGAATCAGTATGGTTGCTATCTGC DNA 2: ATTTCCTTCAGCAGATAGTAACCATACTGATTCACAT | 63.2 ± 2.4 | 20 ± 0.1 | –
pDNA (AT) (dsDNA) DNA 1: ATGTGAATCAGTATGGTTACTATCTGC DNA 2: ATTTCCTTCAGCAGATAGTAACCATACTGATTCACAT | 430 ± 18 | 50.7 ± 2.3 | binds
GT-dsDNA (GT 18 nt from 3' end) (dsDNA) DNA 1: ATGTGAATCAGTATGGTTGCTATCTGCTGAAGGAAAT DNA 2: ATTTCCTTCAGCAGATAGTAACCATACTGATTCACAT | 41.3 ± 5.2 | 35 ± 0.9 | binds
dsDNA (dsDNA) DNA 1: ATGTGAATCAGTATGGTTACTATCTGCTGAAGGAAAT DNA 2: ATTTCCTTCAGCAGATAGTAACCATACTGATTCACAT | 358 ± 36.9 | 331 ± 15.9 | binds

Source: doi:10.1101/2020.05.01.070730 (bioRxiv, 2020)
